The values that follow come from patent US20260234267A1 (KAIGENE, published 2026).

The labels stand for the following.
B1: VH2/VL6 humanized anti-CD11b antibody (antibody, human IgG4 S228P, kappa, V domains shown)
VH: QVQLVQSGAEVKKPGSSVKVSCKASGYAFINYLIEWVKQAPGQGLEWIGVINPGSGGTNYNEKFKGRATLTADKSTSTAYMELSSLRSEDTAVYFCARGDDYDDYTMDYWGQGTLVTVSS
VL: EIVLTQSPATLSLSPGERATLSCRASQSISNNLHWYQQKPGQAPRLLIKYASQSESGIPSRFSGSGSGTDFTLTISSLEPEDFGMYFCQQSNSWPLTFGQGTKLEIKR
notes: Lead candidate; IgG4 with S241P and L248E; also called VH2 with VL6
B2: VH4/VL2 humanized anti-CD11b antibody (antibody, V domains shown)
VH: QVQLVQSGAEVKKPGSSVKVSCKASGYAFINYLIEWVKQAPGQGLEWIGVINPGSGGTNYNEKFKGRVTITADKSTSTAYMELSSLRSEDTAVYYCARGDDYDDYTMDYWGQGTLVTVSS
VL: DIVLTQSPATLSLSPGERATLSCRASQSISNNLHWYQQKPGQAPRLLIKYASQSMSGIPSRFSGSGSGTDFTLTISSLEPEDFGMYFCQQSNSWPLTFGQGTKLEIK
notes: Member of the group 'the variants with VH4 or VH5'; One of the 30 humanized variants
B3: VH4/VL3 humanized anti-CD11b antibody (antibody, V domains shown)
VH: QVQLVQSGAEVKKPGSSVKVSCKASGYAFINYLIEWVKQAPGQGLEWIGVINPGSGGTNYNEKFKGRVTITADKSTSTAYMELSSLRSEDTAVYYCARGDDYDDYTMDYWGQGTLVTVSS
VL: EIVLTQSPATLSLSPGERATLSCRASQSISNNLHWYQQKPGQAPRLLIKYASQSMSGIPSRFSGSGSGTDFTLTISSLEPEDFGMYFCQQSNSWPLTFGQGTKLEIK
notes: as for B2
B4: VH2/VL3 humanized anti-CD11b antibody (antibody, human IgG4 S228P, kappa)
heavy: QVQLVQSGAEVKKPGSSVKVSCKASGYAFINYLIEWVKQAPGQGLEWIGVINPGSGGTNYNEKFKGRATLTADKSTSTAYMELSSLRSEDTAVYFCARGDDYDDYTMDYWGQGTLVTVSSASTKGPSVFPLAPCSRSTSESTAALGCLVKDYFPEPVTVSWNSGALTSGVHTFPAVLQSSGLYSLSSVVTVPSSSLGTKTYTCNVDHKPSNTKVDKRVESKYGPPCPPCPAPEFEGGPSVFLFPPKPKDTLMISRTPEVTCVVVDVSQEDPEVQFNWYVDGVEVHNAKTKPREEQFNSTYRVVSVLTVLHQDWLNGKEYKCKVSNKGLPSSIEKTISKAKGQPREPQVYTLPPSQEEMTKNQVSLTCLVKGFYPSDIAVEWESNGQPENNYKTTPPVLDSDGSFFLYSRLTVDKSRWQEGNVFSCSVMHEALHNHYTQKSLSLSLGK
light: EIVLTQSPATLSLSPGERATLSCRASQSISNNLHWYQQKPGQAPRLLIKYASQSMSGIPSRFSGSGSGTDFTLTISSLEPEDFGMYFCQQSNSWPLTFGQGTKLEIKRTVAAPSVFIFPPSDEQLKSGTASVVCLLNNFYPREAKVQWKVDNALQSGNSQESVTEQDSKDSTYSLSSTLTLSKADYEKHKVYACEVTHQGLSSPVTKSFNRGEC
notes: Lead candidate; IgG4 with S241P and L248E; also called VH2 with VL3
B5: VH1/VL6 humanized anti-CD11b antibody (antibody, human IgG4 S228P, kappa, V domains shown)
VH: QVQLQQSGAELKRPGSSVKVSCKASGYAFINYLIEWVKQAPGQGLEWIGVINPGSGGTNYNEKFKGKATLTADKSSSTAYMELSSLRSDDSAVYFCARGDDYDDYTMDYWGQGTSVTVSS
VL: EIVLTQSPATLSLSPGERATLSCRASQSISNNLHWYQQKPGQAPRLLIKYASQSESGIPSRFSGSGSGTDFTLTISSLEPEDFGMYFCQQSNSWPLTFGQGTKLEIKR
notes: Lead candidate; IgG4 with S241P and L248E; also called VH1 with VL6
B6: VH2/VL2 humanized anti-CD11b antibody (antibody, human IgG4 S228P, kappa)
heavy: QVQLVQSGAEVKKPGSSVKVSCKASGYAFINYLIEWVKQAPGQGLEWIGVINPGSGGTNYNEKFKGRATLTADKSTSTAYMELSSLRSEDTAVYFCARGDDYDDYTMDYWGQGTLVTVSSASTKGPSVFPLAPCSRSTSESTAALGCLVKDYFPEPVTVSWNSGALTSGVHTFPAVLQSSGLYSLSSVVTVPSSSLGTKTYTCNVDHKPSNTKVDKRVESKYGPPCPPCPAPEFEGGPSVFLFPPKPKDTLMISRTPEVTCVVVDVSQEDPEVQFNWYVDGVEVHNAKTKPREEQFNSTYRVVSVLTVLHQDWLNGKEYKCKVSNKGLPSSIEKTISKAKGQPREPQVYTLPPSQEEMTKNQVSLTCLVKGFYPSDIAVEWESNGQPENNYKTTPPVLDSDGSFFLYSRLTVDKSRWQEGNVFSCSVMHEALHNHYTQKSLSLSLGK
light: DIVLTQSPATLSLSPGERATLSCRASQSISNNLHWYQQKPGQAPRLLIKYASQSMSGIPSRFSGSGSGTDFTLTISSLEPEDFGMYFCQQSNSWPLTFGQGTKLEIKRTVAAPSVFIFPPSDEQLKSGTASVVCLLNNFYPREAKVQWKVDNALQSGNSQESVTEQDSKDSTYSLSSTLTLSKADYEKHKVYACEVTHQGLSSPVTKSFNRGEC
notes: Lead candidate; IgG4 with S241P and L248E; also called VH2 with VL2
B7: VH4/VL6 humanized anti-CD11b antibody (antibody, human IgG4 S228P, kappa, V domains shown)
VH: QVQLVQSGAEVKKPGSSVKVSCKASGYAFINYLIEWVKQAPGQGLEWIGVINPGSGGTNYNEKFKGRVTITADKSTSTAYMELSSLRSEDTAVYYCARGDDYDDYTMDYWGQGTLVTVSS
VL: EIVLTQSPATLSLSPGERATLSCRASQSISNNLHWYQQKPGQAPRLLIKYASQSESGIPSRFSGSGSGTDFTLTISSLEPEDFGMYFCQQSNSWPLTFGQGTKLEIKR
notes: Lead candidate; IgG4 with S241P and L248E; also called VH4 with VL6

This assay deals with Mac-1 (CD11b/CD18 integrin) on polymorphonuclear leukocytes (PMNs) of healthy human donors (human, UniProt P11215 17-1152; P05107 23-769). Nature of the assay: flow cytometry, 30 µg/mL antibody on untreated versus PMA-treated human WBCs, % CD11b+ cells of live PMNs. The method, then: FIG. 3 is a chart showing the results of a flow cytometry analysis of activated polymorphonuclear leukocytes (“PMNs”) stained using 30 humanized anti-CD11b constructs prepared according to the present disclosure. The percentages of CD11b+ cells in live PMN were calculated by a gating based on a control, which is the cells stained with human IgG4 isotype, and are presented as means S.E.M. from four independent experiments. The white bars are CD11b+ cells in untreated white blood cells (WBCs), while the black bars are CD11b+ cells in PMA-treated WBCs.
The baseline CBRM1/5 antibody can distinguish between non-activated (resting) and activated form of Mac-1. In order to validate that humanized variants retained this characteristic, WBCs were isolated from 4 healthy human donors and activated in the absence or presence of phorbol 12-myristate-13-acetate (PMA). The cells were then stained with 30 μg/mL of each of the 30 humanized variants along with control antibody (human IgG4 isotype) and analyzed using flow cytometry. The percentages of CD11b+ cells in live PMNs were calculated by a gating based on a control, which is the cells stained with human IgG4 isotype, and are presented as means S.E.M. from four independent experiments. Variants containing VL5 lost a binding to Mac-1 in polymorphonuclear leukocytes (PMNs) regardless of the pairings with any VH variant (FIGS. 3-4). […] However, VH1/VL6 and all variants with VH2 preserved the characteristic of CBRM1/5 that can distinguish between non-activated (resting) and activated form of Mac-1, while the variants with VH4 or VH5 were likely to lose the specificity of the parental antibody, CBRM1/5 (FIGS. 3-4).
(Flow cytometry measures light scatter and fluorescence of single cells or particles in a stream.)
Regarding B1, the binding result was “binds”.

For B2, the binding result is reported as “binds”.

On to B3, for which the binding result is “binds”.

Regarding B4, the binding result is recorded as “binds”.

For the molecule B5, the binding result is listed as “binds”.

For the molecule B6, the binding result is given as “binds”.

On to B7, for which the binding result is listed as “binds”.
